Laboratory results published in patent US20240207421A1, “NERVE TARGETING PEPTIDES AND METHODS OF USE” (ALUME BIOSCIENCES, INC., priority 2020, published 2024).

Biological target: Human Myelin Basic Protein (Homo sapiens, UniProt P02686)
Test: Phage display library screening (Example 2, Python script analysis), binding to Human Myelin Basic Protein
Set-up: Enzo 200-606-M001 from human; purchased Enzo 200-606-M001; host or cells: human brain (tissue-derived)
Conditions: R3 Myelin Basic Protein; combined unique sequence count, Python/R script analysis
Experimental: Phage display library screens were used to identify peptides that bind to target proteins (including specific laminin trimers) that are expressed in human nerves, as described in Table 3. These screens were also carried out to identify peptides that could bind selectively to nerves versus muscle. Such peptides could therefore be useful for systemic in-vivo labeling of nerves during fluorescence assisted surgery. Specifically, m 13 phage libraries expressing 7 or 12 random amino acid peptides, or a cyclic peptide CX7C, on the N-terminus of the minor coat protein pIII (New England Biolabs; NEB) were processed through multiple rounds of selection for binding to target proteins expressed in nerves, or to excised human nerves, nerve extracts, or muscle, as described further below.
For screening against the specified target proteins in Table 1, including LN211, LN411, LN421, and LN521, the phage library was processed by up to 4 binding and wash cycles. For selection, phage libraries were incubated for up to 24 hours at 4° C. in 96 well plates that had been coated with one of the target proteins. Plates were then washed with PBS and phage were eluted using 0.2M glycine pH 2.0. Phage supernatants where then neutralized with Tris pH 9.0 prior to plating on TGI bacteria and LB agar plates. Colonies were counted to determine titer followed by DNA preparation of pools of phage and NextGen sequencing. After rounds of selection, phage were pooled and amplified for iterative selection. Phage that were bound at each round were sequenced. NextGen sequencing of pools after 2, 3 and 4 rounds of selection was used to isolate candidate sequences that were analyzed further to identify those that specifically bound each unique target protein.
Python Script Analysis: For all NEB sequence datasets, a python script was used to translate, trim, and filter the peptide sequences. The script translated the nucleotide sequences, translating amber codons as glutamine in peptide sequences, and then trimmed the end sequences that come from the vector. Secondly, the script combined the unique counts of trimmed peptides with identical sequences. […] Another python script was used to group peptides from different assays according to protein target (Myelin Protein Zero, Myelin Proteolipid Protein, Myelin Basic Protein, and Nidogen-2) and also combine the unique sequence counts for each peptide. An R script was written to merge the peptide sequences from different data files and determine peptides specific for each protein target but absent from different protein binding datasets. Peptide sequences were ranked by unique sequence count.

Sequence of Human Myelin Basic Protein (P02686 134-304): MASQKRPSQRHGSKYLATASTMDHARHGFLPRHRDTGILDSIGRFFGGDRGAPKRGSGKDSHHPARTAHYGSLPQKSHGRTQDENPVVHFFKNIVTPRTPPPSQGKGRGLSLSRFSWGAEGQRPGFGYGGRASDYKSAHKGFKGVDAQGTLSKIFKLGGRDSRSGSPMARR

| Substance | Count |
| --- | --- |
| KYRHGAE (R3 Myelin Basic Protein-binding peptide) | 7 |
| SYRSMAP (R3 Myelin Basic Protein-binding peptide) | 6 |
| THKHMMT (R3 Myelin Basic Protein-binding peptide) | 6 |
| VIRTAAM (R3 Myelin Basic Protein-binding peptide) | 6 |
| WDLRHSK (R3 Myelin Basic Protein-binding peptide) | 6 |
| SNAHTLP (R3 Myelin Basic Protein-binding peptide) | 6 |
| SSGMLSK (R3 Myelin Basic Protein-binding peptide) | 7 |
| ELKSLRF (R3 Myelin Basic Protein-binding peptide) | 6 |
| NLKLWTR (R3 Myelin Basic Protein-binding peptide) | 7 |
| TPGRATL (R3 Myelin Basic Protein-binding peptide) | 6 |
| TSRLVST (R3 Myelin Basic Protein-binding peptide) | 8 |
| INFPFAV (R3 Myelin Basic Protein-binding peptide) | 6 |
| WDLPQNR (R3 Myelin Basic Protein-binding peptide) | 6 |
| SYVTVFR (R3 Myelin Basic Protein-binding peptide) | 6 |
| SEPGTVR (R3 Myelin Basic Protein-binding peptide) | 7 |
| SNAERWR (R3 Myelin Basic Protein-binding peptide) | 9 |
| TTTQGHP (R3 Myelin Basic Protein-binding peptide) | 6 |
| SLWQTLR (R3 Myelin Basic Protein-binding peptide) | 6 |
| ANLSRSV (R3 Myelin Basic Protein-binding peptide) | 9 |
| MNSPLAQ (R3 Myelin Basic Protein-binding peptide) | 6 |
| FDLLARK (R3 Myelin Basic Protein-binding peptide) | 6 |
| TIRVAHT (R3 Myelin Basic Protein-binding peptide) | 6 |

| Substance | Count |
| --- | --- |
| SLKTTNP (R3 Myelin Basic Protein-binding peptide) | 6 |
| AQLGAFR (R3 Myelin Basic Protein-binding peptide) | 6 |
| MTNHGNA (R3 Myelin Basic Protein-binding peptide) | 7 |
| AILTRPP (R3 Myelin Basic Protein-binding peptide) | 7 |
| ESPYPHS (R3 Myelin Basic Protein-binding peptide) | 7 |
| NTSLSFK (R3 Myelin Basic Protein-binding peptide) | 8 |
| DVRIWTL (R3 Myelin Basic Protein-binding peptide) | 6 |
| AVRQTTM (R3 Myelin Basic Protein-binding peptide) | 7 |
| HQMRTML (R3 Myelin Basic Protein-binding peptide) | 6 |
| GVAEVGL (R3 Myelin Basic Protein-binding peptide) | 6 |
| SIRMTEI (R3 Myelin Basic Protein-binding peptide) | 7 |
| HLLKTHS (R3 Myelin Basic Protein-binding peptide) | 7 |
| RSRKHRP (R3 Myelin Basic Protein-binding peptide) | 6 |
| VRGTPNH (R3 Myelin Basic Protein-binding peptide) | 6 |
| DSYLLSA (R3 Myelin Basic Protein-binding peptide) | 8 |
| ALGTRPL (R3 Myelin Basic Protein-binding peptide) | 7 |
| AGSLLSL (R3 Myelin Basic Protein-binding peptide) | 6 |
| HYSPNVM (R3 Myelin Basic Protein-binding peptide) | 9 |
| KNSIAPR (R3 Myelin Basic Protein-binding peptide) | 8 |
| YPTYLSY (R3 Myelin Basic Protein-binding peptide) | 6 |
| QYWDILG (R3 Myelin Basic Protein-binding peptide) | 6 |
| HRTHLHQ (R3 Myelin Basic Protein-binding peptide) | 6 |

| Substance | Count |
| --- | --- |
| HFLRPSD (R3 Myelin Basic Protein-binding peptide) | 7 |
| NPTDTNK (R3 Myelin Basic Protein-binding peptide) | 8 |
| GSPYGWG (R3 Myelin Basic Protein-binding peptide) | 6 |
| SVGLPTK (R3 Myelin Basic Protein-binding peptide) | 6 |
| YLPPPLP (R3 Myelin Basic Protein-binding peptide) | 7 |
| TLLTALT (R3 Myelin Basic Protein-binding peptide) | 7 |
| SGPFPLV (R3 Myelin Basic Protein-binding peptide) | 6 |
| QPIDSTS (R3 Myelin Basic Protein-binding peptide) | 7 |
| GPRVTPH (R3 Myelin Basic Protein-binding peptide) | 6 |
| IGTRWHQ (R3 Myelin Basic Protein-binding peptide) | 6 |
| LFRRVTE (R3 Myelin Basic Protein-binding peptide) | 7 |
| VLSPYHN (R3 Myelin Basic Protein-binding peptide) | 6 |
| SPKPDIP (R3 Myelin Basic Protein-binding peptide) | 6 |
| GQWWKML (R3 Myelin Basic Protein-binding peptide) | 6 |
| ARVPNPL (R3 Myelin Basic Protein-binding peptide) | 6 |
| VSFTLEP (R3 Myelin Basic Protein-binding peptide) | 7 |
| TPVLWLP (R3 Myelin Basic Protein-binding peptide) | 6 |
| HPWLGNR (R3 Myelin Basic Protein-binding peptide) | 9 |
| WSLPLLS (R3 Myelin Basic Protein-binding peptide) | 7 |
| SSFYVAY (R3 Myelin Basic Protein-binding peptide) | 6 |
| KVHHLAR (R3 Myelin Basic Protein-binding peptide) | 6 |
| QTSIMSG (R3 Myelin Basic Protein-binding peptide) | 6 |

| Substance | Count |
| --- | --- |
| NGVSSSL (R3 Myelin Basic Protein-binding peptide) | 6 |
| LVPPVNH (R3 Myelin Basic Protein-binding peptide) | 6 |
| SIAEVLGLWRNV (R3 Myelin Basic Protein-binding peptide) | 7 |
| SPPRFIP (R3 Myelin Basic Protein-binding peptide) | 8 |
| SLWTHRT (R3 Myelin Basic Protein-binding peptide) | 6 |
| HQPLFPR (R3 Myelin Basic Protein-binding peptide) | 6 |
| QNSYLSN (R3 Myelin Basic Protein-binding peptide) | 8 |
| SRHLPPL (R3 Myelin Basic Protein-binding peptide) | 6 |
| FSAGVGK (R3 Myelin Basic Protein-binding peptide) | 7 |
| VAHQRVS (R3 Myelin Basic Protein-binding peptide) | 8 |
| AQFLTIY (R3 Myelin Basic Protein-binding peptide) | 6 |
| QKALPQT (R3 Myelin Basic Protein-binding peptide) | 6 |
| NLLQGVM (R3 Myelin Basic Protein-binding peptide) | 7 |
| DVVKDVI (R3 Myelin Basic Protein-binding peptide) | 7 |
| YSSRLND (R3 Myelin Basic Protein-binding peptide) | 6 |
| TSPPLAH (R3 Myelin Basic Protein-binding peptide) | 8 |
| CTMTNQYDC (R3 Myelin Basic Protein-binding peptide) | 6 |
| HTGLRSL (R3 Myelin Basic Protein-binding peptide) | 7 |
| AIPPRKL (R3 Myelin Basic Protein-binding peptide) | 6 |
| LPPQISR (R3 Myelin Basic Protein-binding peptide) | 8 |
